To fix the notation:
B1: Her-1L-RP (bispecific antibody)
light (part 1 of 2): not shown
light (part 2 of 2): SSGGGGSGGGGGGSSRSSSFYSCLESLVNGPAEKSRGQWDGCRKK
heavy: not shown
notes: also called Her-lL-RP; not shown: kappa light chain constant region; heavy chain constant region
B2: L1-7D MGD (other)
chain: MGAQTNFMPMGDDELLLYEQFILQQGLE
B3: Lm32 KtoS (other)
chain: PGSGGGSMGAQTNFMPMDNDELLLYEQFILQQGLE
B4: L1-7D MND (other)
chain: MGAQTNFMPMNDDELLLYEQFILQQGLE
B5: L1-7D MHD (other)
chain: MGAQTNFMPMHDDELLLYEQFILQQGLE
B6: L1-7D MTD (other)
chain: MGAQTNFMPMTDDELLLYEQFILQQGLE
B7: L1-7D MSD (other)
chain: MGAQTNFMPMSDDELLLYEQFILQQGLE
B8: Her-sL-RGD4C (bispecific antibody)
light (part 1 of 2): not shown
light (part 2 of 2): GGGSCDCRGDCFC
heavy: not shown
notes: also called C-terminal fusion of integrin αvβ3 targeting MRD with the ErbB2 antibody with the short linker peptide; not shown: kappa light chain constant region; heavy chain constant region
B9: LM32 variant SEQ ID NO:88 expressed as MBP fusion protein (other, not shown: large carriers; small tags and cut ends)
chain: KSLSLSPGSGGGSMGAQTNFMPMDNDEGLLYEQFILQQGLE
modifications: not fully specified (N-terminus); also: fused to maltose binding protein carrier at N-terminus
B10: LM32 variant SEQ ID NO:100 expressed as MBP fusion protein (other, not shown: large carriers; small tags and cut ends)
peptide: KSLSLSPGSGGGSMGAQTNFMPMDDDELLLYEQFILQQGLE
modifications: not fully specified (N-terminus); also: fused to maltose binding protein carrier at N-terminus
B11: LM32 variant SEQ ID NO:97 expressed as MBP fusion protein (other, not shown: large carriers; small tags and cut ends)
chain: KSLSLSPGSGGGSMGAQTNFMPMDNDEALLYEEFILQQGLE
modifications: not fully specified (N-terminus); also: fused to maltose binding protein carrier at N-terminus
B12: LM32 variant SEQ ID NO:96 expressed as MBP fusion protein (other, not shown: large carriers; small tags and cut ends)
chain: KSLSLSPGSGGGSMGAQTNFMPMDNDEGLLYEEFILQQGLE
modifications: not fully specified (N-terminus); also: fused to maltose binding protein carrier at N-terminus
B13: LM32 variant SEQ ID NO:93 expressed as MBP fusion protein (other, not shown: large carriers; small tags and cut ends)
chain: KSLSLSPGSGGGSMGAQTNFMPMDNDEGLLYEQFIYQQGLE
modifications: not fully specified (N-terminus); also: fused to maltose binding protein carrier at N-terminus
B14: LM32 variant SEQ ID NO:94 expressed as MBP fusion protein (other, not shown: large carriers; small tags and cut ends)
chain: KSLSLSPGSGGGSMGAQTNFMPMDNDEALLYEQFIYQQGLE
modifications: not fully specified (N-terminus); also: fused to maltose binding protein carrier at N-terminus
B15: LM32 variant SEQ ID NO:90 expressed as MBP fusion protein (other, not shown: large carriers; small tags and cut ends)
chain: KSLSLSPGSGGGSMGAQTNFMPMDNDEALLYEQFILQQGLE
modifications: not fully specified (N-terminus); also: fused to maltose binding protein carrier at N-terminus
B16: LM32 variant SEQ ID NO:91 expressed as MBP fusion protein (other, not shown: large carriers; small tags and cut ends)
chain: KSLSLSPGSGGGSMGAQTNFMPMDNDELTLYEQFILQQGLE
modifications: not fully specified (N-terminus); also: fused to maltose binding protein carrier at N-terminus
B17: LM32 variant SEQ ID NO:99 expressed as MBP fusion protein (other, not shown: large carriers; small tags and cut ends)
chain: KSLSLSPGSGGGSMGAQTNFMPMDQDELLLYEQFILQQGLE
modifications: not fully specified (N-terminus); also: fused to maltose binding protein carrier at N-terminus
B18: LM32 variant SEQ ID NO:142 expressed as MBP fusion protein (other, not shown: large carriers; small tags and cut ends)
chain: KSLSLSPGSGGGSMGAQTNFMPMDNDELLLYEQFI
modifications: not fully specified (N-terminus); also: fused to maltose binding protein carrier at N-terminus
B19: LM32 variant SEQ ID NO:143 expressed as MBP fusion protein (other, not shown: large carriers; small tags and cut ends)
chain: KSLSLSPGSGGGSMGAQTNFMPMDNEELLLYEQFI
modifications: not fully specified (N-terminus); also: fused to maltose binding protein carrier at N-terminus

No end group written: not given here.

One assay addresses T1, insulin-like growth factor-I receptor (IGF1R) (UniProt P08069 31-932, limits assumed).
T1 construct: also called immobilized IGF-1R; IGR1R
Put plainly: ELISA on coated antigen, absorbance at 405 nm, BSA-coated wells as control; single condition.
Consider B1, for which the binding result was “no binding (tested: not shown)”.

Another assay deals with T2, angiopoietin-2 (Ang2) (human, UniProt O15123 68-496, limits assumed, biotinylated in Examples 22-24 (R&D cat#BT633)).
T2 construct: also called rhAng2; recombinant Ang2
T2 sequence (looked up): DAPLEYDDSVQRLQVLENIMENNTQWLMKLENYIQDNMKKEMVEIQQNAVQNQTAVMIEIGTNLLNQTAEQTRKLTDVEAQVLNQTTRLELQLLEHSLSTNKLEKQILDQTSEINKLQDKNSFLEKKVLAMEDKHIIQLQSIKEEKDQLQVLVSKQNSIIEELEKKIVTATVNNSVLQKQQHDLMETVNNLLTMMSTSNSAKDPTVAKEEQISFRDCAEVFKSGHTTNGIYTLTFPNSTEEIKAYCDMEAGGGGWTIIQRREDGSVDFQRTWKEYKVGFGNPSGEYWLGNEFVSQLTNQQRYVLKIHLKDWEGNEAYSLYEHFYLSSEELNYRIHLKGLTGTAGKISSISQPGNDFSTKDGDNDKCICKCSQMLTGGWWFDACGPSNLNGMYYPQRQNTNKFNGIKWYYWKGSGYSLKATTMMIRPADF
The experiment in a line: ELISA, rhAng2 coated, MRD-MBP fusion detected with HRP anti-MBP mAb; EC50 from a 4 parameter fit.
In general, EC50 refers to the concentration that produces a half-maximal response. The molecule B2 had an EC50 of 0.6 nM. For B3, a half-maximal effect (EC50) was put at 0.199 nM.

Molecule B4 displayed an EC50 of 0.411 nM. Consider B5, for which the EC50 is 17 nM.

B6 registered an EC50 of 7.34 nM. In turn, B7 showed an EC50 of 1.38 nM.

The target in a further assay is integrin αvβ3 (ELISA antigen) (UniProt P06756 31-992; P05106 27-718, limits assumed). The experiment in a line: ELISA on coated antigen, absorbance at 405 nm, BSA-coated wells as control; single condition; the bar is labelled Antigen, taken as the target of the MRD of the construct. In general terms: ELISA stands for enzyme-linked immunosorbent assay.
Chain of integrin αvβ3 (ELISA antigen) (P06756 31-992 limits assumed, chain 1 of 2): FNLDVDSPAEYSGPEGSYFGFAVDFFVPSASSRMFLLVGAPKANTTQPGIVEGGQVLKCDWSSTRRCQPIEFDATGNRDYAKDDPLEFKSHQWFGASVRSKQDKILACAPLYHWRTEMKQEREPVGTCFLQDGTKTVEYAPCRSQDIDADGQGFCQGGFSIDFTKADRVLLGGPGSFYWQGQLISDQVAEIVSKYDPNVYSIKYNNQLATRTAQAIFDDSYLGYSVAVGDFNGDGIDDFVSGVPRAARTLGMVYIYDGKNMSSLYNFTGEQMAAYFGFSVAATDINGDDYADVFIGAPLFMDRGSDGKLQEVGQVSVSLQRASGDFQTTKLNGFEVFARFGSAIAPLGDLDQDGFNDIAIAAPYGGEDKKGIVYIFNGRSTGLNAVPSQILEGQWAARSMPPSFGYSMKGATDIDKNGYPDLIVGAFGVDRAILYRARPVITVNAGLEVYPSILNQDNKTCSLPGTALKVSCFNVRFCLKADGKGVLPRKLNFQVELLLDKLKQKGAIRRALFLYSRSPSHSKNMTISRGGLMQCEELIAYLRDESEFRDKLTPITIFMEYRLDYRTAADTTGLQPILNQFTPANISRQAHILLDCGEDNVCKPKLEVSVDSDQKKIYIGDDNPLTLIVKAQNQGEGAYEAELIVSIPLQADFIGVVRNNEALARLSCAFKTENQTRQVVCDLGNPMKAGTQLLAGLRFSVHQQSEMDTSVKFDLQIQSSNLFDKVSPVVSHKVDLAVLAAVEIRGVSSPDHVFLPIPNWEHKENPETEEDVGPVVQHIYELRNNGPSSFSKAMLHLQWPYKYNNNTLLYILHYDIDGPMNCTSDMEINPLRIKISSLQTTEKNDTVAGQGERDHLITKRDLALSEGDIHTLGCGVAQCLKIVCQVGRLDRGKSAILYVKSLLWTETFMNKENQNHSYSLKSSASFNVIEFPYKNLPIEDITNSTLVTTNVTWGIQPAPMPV
Chain of integrin αvβ3 (ELISA antigen) (P05106 27-718 limits assumed, chain 2 of 2): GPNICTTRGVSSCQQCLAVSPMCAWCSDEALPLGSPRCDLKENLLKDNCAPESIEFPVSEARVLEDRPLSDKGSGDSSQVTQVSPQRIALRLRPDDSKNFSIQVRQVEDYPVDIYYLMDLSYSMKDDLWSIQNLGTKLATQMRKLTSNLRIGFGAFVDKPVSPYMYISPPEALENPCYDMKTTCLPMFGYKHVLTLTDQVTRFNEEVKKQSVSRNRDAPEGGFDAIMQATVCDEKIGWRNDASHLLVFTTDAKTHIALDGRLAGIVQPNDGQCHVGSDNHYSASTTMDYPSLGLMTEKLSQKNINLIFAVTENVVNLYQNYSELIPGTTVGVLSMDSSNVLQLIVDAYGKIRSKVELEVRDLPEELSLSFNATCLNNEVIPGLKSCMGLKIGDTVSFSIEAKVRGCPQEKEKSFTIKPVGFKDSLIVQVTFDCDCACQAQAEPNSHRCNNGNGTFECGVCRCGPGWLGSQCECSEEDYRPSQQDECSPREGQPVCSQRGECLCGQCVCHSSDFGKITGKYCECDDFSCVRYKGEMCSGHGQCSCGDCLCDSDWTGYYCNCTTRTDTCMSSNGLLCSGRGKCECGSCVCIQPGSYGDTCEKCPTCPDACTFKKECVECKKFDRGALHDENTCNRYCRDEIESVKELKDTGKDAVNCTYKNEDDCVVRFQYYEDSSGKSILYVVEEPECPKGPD
On to B8, for which the binding result is given as “no binding (tested: not shown)”.

For a further assay, the target named is T2, angiopoietin-2 (Ang2). The experiment in a line: MBP fusion protein tested for binding to Ang2; method not restated (direct-binding ELISA in Example 19).
Description: For detection of direct binding of MRD-MBP fusions to Ang2, the following ELISA was performed. […] MBP fusion proteins were serially diluted in Blocking buffer and added to wells for 2 hours at RT. After washing (8×300 μl wash buffer), samples were treated with HRP-mouse anti MBP mAb (NEB, cat #E8038S), diluted 1:4000 in Blocking buffer. After incubation for 1 hour at RT, wells were washed (8×3000 wash buffer) prior to receiving 100 μl of TMB substrate (KPL Laboratories). Color development was stopped with 100 μl of H₂SO₄, and absorbance was read at 450 nm.
On to B9, for which the EC50 amounted to 1.04 nM. Turning to B10, the EC50 stood at 0.24 nM. Still for that read-out and setting: the same measure for B11: 0.426 nM. The molecule B12 returned an EC50 of 0.922 nM. In the case of B13, a half-maximal effect (EC50) was put at 0.902 nM.

In turn, B14 gave a concentration giving a half-maximal response (EC50) of 0.392 nM.

B15: the EC50 came out at 0.182 nM.

With B16, the EC50 worked out at 1.42 nM. Molecule B17 displayed an EC50 of 0.383 nM. Still for that read-out and setting: the same measure for B18: 1.08 nM; for B19: 20.7 nM.

For the origin of these results see US20120100166A1 (ZYNGENIA, published 2012).
